Data as given in publication PMC3869383.

What was measured:
[1] = target: 20S core particle purified from S. cerevisiae (S. cerevisiae (endogenous in yeast)) (UniProt P22141)
[2] = target: 20S core particle purified from S. cerevisiae (S. cerevisiae (endogenous in yeast)) (UniProt P22141); experiment: peptidase-stimulation
[3] = target: recombinant base variant NT2 (C-terminal tail of Rpt2 truncated) (S. cerevisiae) (UniProt P33299); experiment: ATPase-repression titration
[4] = target: recombinant base variant NT5 (C-terminal tail of Rpt5 truncated) (S. cerevisiae) (UniProt P33299); experiment: ATPase-repression titration

Row | Substance | peptidase stimulation, % of WT base [1] [% WT] | other results
1 | recombinant base variant YA2 (pore-1 loop YA in Rpt2) (from UniProt P33299;P40327;P33298;P53549;P33297;Q01939;P38764;P32565;O13563) (complex) | 38 | Kd [2]: 138 nM
2 | recombinant base variant KS6 (Walker-A KS in Rpt6) (from UniProt P33299;P40327;P33298;P53549;P33297;Q01939;P38764;P32565;O13563) (complex) | 54 | –
3 | recombinant base variant KS3 (Walker-A KS in Rpt3) (from UniProt P33299;P40327;P33298;P53549;P33297;Q01939;P38764;P32565;O13563) (complex) | 58 | –
4 | recombinant base variant NT5 (C-terminal tail of Rpt5 truncated) (from UniProt P33299;P40327;P33298;P53549;P33297;Q01939;P38764;P32565;O13563) (complex) | 7 | –
5 | recombinant base variant KS2 (Walker-A KS in Rpt2) (from UniProt P33299;P40327;P33298;P53549;P33297;Q01939;P38764;P32565;O13563) (complex) | 10 | –
6 | recombinant base variant with the Walker-B EQ mutation in all six Rpt subunits (from UniProt P33299;P40327;P33298;P53549;P33297;Q01939;P38764;P32565;O13563) (complex) | 110 | –
7 | recombinant base variant EN2 (pore-2 loop EN in Rpt2) (from UniProt P33299;P40327;P33298;P53549;P33297;Q01939;P38764;P32565;O13563) (complex) | 110 | –
8 | recombinant base variant YA1 (pore-1 loop YA in Rpt1) (from UniProt P33299;P40327;P33298;P53549;P33297;Q01939;P38764;P32565;O13563) (complex) | 84 | –
9 | recombinant base variant EQ4 (Walker-B EQ in Rpt4) (from UniProt P33299;P40327;P33298;P53549;P33297;Q01939;P38764;P32565;O13563) (complex) | 95 | –
10 | recombinant base variant NT2 (C-terminal tail of Rpt2 truncated) (from UniProt P33299;P40327;P33298;P53549;P33297;Q01939;P38764;P32565;O13563) (complex) | 10 | –
11 | recombinant base variant NT3 (C-terminal tail of Rpt3 truncated) (from UniProt P33299;P40327;P33298;P53549;P33297;Q01939;P38764;P32565;O13563) (complex) | 5 | –
12 | recombinant base variant DN6 (pore-2 loop DN in Rpt6) (from UniProt P33299;P40327;P33298;P53549;P33297;Q01939;P38764;P32565;O13563) (complex) | 84 | –
13 | recombinant base variant KS5 (Walker-A KS in Rpt5) (from UniProt P33299;P40327;P33298;P53549;P33297;Q01939;P38764;P32565;O13563) (complex) | 59 | –
14 | recombinant base variant EQ5 (Walker-B EQ in Rpt5) (from UniProt P33299;P40327;P33298;P53549;P33297;Q01939;P38764;P32565;O13563) (complex) | 118 | –
15 | recombinant base variant DN4 (pore-2 loop DN in Rpt4) (from UniProt P33299;P40327;P33298;P53549;P33297;Q01939;P38764;P32565;O13563) (complex) | 192 | –
16 | recombinant base variant NT4 (C-terminal tail of Rpt4 truncated) (from UniProt P33299;P40327;P33298;P53549;P33297;Q01939;P38764;P32565;O13563) (complex) | 108 | –
17 | 20S core particle purified from S. cerevisiae (from UniProt P22141 1-198) (complex) | – | fold lower affinity than wild-type base [3]: 1.3 fold; fold lower affinity than wild-type base [4]: 5.6 fold
